PMC8635156, “Structural and Functional Analysis of SsaV Cytoplasmic Domain and Variable Linker States in the Context of the InvA-SsaV Chimeric Protein” (Microbiology Spectrum, 2021)

What was measured:
[1] = molecular target: the molecule itself; assay: cryo-EM structure; single particle analysis of the GDN-solubilised chimera ISS (~10 mg/ml); C9 symmetry, 2.11 Å for the SsaVC part; TM and linker regions hardly visible
[2] = molecular target: the molecule itself; assay: SEC; gel filtration of purified cytoplasmic domains (Superdex 200 Increase 10/300 GL; 20 mM Tris-HCl pH 8.0, 150 mM NaCl); Fig. 1B at two salt concentrations (physiological and high salt); Fig. 4D wild type and variants

| Protein | stoichiometry N [1] | stoichiometry N [2] |
| --- | --- | --- |
| InvATM-SsaVL-SsaVC chimeric full-length protein (ISS) (other, InvA, Salmonella enterica serovar Typhimurium, transmembrane region: what is left when residues 316-685 are replaced (residues 1-315); SsaV, Salmonella enterica serovar Typhimurium, residues 326-682 (linker SsaVL and cytoplasmic domain SsaVC); Eluted from the Strep-Tactin beads after the SUMO tag was cleaved on the beads; also called InvATM-SsaVC chimera; chimeric ISS; source: E. coli BL21, …) MLLSLLNSARLRPELLILVLMVMIISMFVIPLPTYLVDFLIALNIVLAILVFMGSFYIDRILSFSTFPAVLLITTLFRLALSISTSRLILIEADAGEIIATFGQFVIGDSLAVGFVVFSIVTVVQFIVITKGSERVAEVAARFSLDGMPGKQMSIDADLKAGIIDADAARERRSVLERESQLYGSFDGAMKFIKGDAIAGIIIIFVNFIGGISVGMTRHGMDLSSALSTYTMLTIGDGLVAQIPALLIAISAGFIVTRVNGDSDNMGRNIMTQLLNNPFVLVVTAILTISMGTLPGFPLPVFVILSVVLSVLFYFIRRKKSVVSANGVEAPEKDSMVPGACPLILRLSPTLHSADLIRDIDAMRWFLFEDTGVPLPEVNIEVLPEPTEKLTVLLYQEPVFSLSIPAQADYLLIGADASVVGDSQTLPNGMGQICWLTKDMAHKAQGFGLDVFAGSQRISALLKCVLLRHMGEFIGVQETRYLMNAMEKNYSELVKELQRQLPINKIAETLQRLVSERVSIRDLRLIFGTLIDWAPREKDVLMLTEYVRIALRRHILRRLNPEGKPLPILRIGEGIENLVRESIRQTAMGTYTALSSRHKTQILQLIEQALKQSAKLFIVTSVDTRRFLRKITEATLFDVPILSWQELGEESLIQVVESIDLSEEELADNEE | 9 |  |
| SsaV cytoplasmic domain (SsaVC), residues 346-682 (domain or fragment, SsaV (SctV of the SPI-2 T3SS), Salmonella enterica serovar Typhimurium, residues 346-682 (cytoplasmic domain with the last residues of the linker); The His6 tag is thrombin-cleavable (pET15b); the purification as described names no cleavage step; also called SctVC of SPI-2; source: E. coli BL21, purified (Ni-NTA, Hitrap Q anion exchange, SEC)) MVPGACPLILRLSPTLHSADLIRDIDAMRWFLFEDTGVPLPEVNIEVLPEPTEKLTVLLYQEPVFSLSIPAQADYLLIGADASVVGDSQTLPNGMGQICWLTKDMAHKAQGFGLDVFAGSQRISALLKCVLLRHMGEFIGVQETRYLMNAMEKNYSELVKELQRQLPINKIAETLQRLVSERVSIRDLRLIFGTLIDWAPREKDVLMLTEYVRIALRRHILRRLNPEGKPLPILRIGEGIENLVRESIRQTAMGTYTALSSRHKTQILQLIEQALKQSAKLFIVTSVDTRRFLRKITEATLFDVPILSWQELGEESLIQVVESIDLSEEELADNEE |  | 9 |
